In the supplement of paper PMC5998384:

Legend:
[1] = system: HeLa Kyoto; test: solubility change mitosis vs G1/S (difference of NP-40 vs SDS log2 ratios) (log2 ratio difference); higher = more soluble in mitosis
[2] = system: HeLa Kyoto; test: thermal stability score vs G1/S (z-score of summed log2 fold changes over temperatures); higher = more thermally stable than in G1/S
[3] = system: HeLa Kyoto; test: solubility in G1/S (NP-40 vs SDS abundance) (log2 ratio); higher = more soluble; settings: cell cycle stage: G1/S
[4] = system: HeLa Kyoto; test: melting temperature (median over replicates), in situ; higher = more thermally stable
[5] = cell cycle stage: early G1 (4.5 h after nocodazole release)
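For melting temperature (median over replicates), in situ in this document: HeLa Kyoto cells synchronized by double thymidine or nocodazole block, proteins quantified by TMT10plex mass spectrometry, three independent biological replicates.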
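For solubility change mitosis vs G1/S (difference of NP-40 vs SDS log2 ratios) in this document: synchronized HeLa Kyoto cells (double thymidine block for G1/S, nocodazole release for mitosis), protein amounts in NP-40 versus SDS lysates quantified by mass spectrometry, three biological replicates.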
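For solubility in G1/S (NP-40 vs SDS abundance) in this document: HeLa Kyoto cells arrested at G1/S by double thymidine block, proteins quantified by TMT10plex mass spectrometry in mild NP-40 versus SDS extracts, three biological replicates.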
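For thermal stability score vs G1/S (z-score of summed log2 fold changes over temperatures) in this document: synchronized HeLa Kyoto cells, proteins quantified by TMT10plex mass spectrometry, three biological replicates, mitosis taken 0.5 h after nocodazole release, G1/S directly after double thymidine block.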

| Sequence | solubility change mitosis (log2) [1] | thermal stability score [2, 5] | thermal stability score ([2]; cell cycle stage: mitosis) | solubility in G1/S (log2) [3] | melting temperature ([4]; cell cycle stage: G1/S) [°C] | melting temperature ([4]; cell cycle stage: mitosis) [°C] |
| --- | --- | --- | --- | --- | --- | --- |
| MAACRYCCSCLRLRPLSDGPFLLPRRDRALTQLQVRALWSSAGSRAVAVDLGNRKLEISSGKLARFADGSAVVQSGDTAVMVTAVSKTKPSPSQFMPLVVDYRQKAAAAGRIPTNYLRREIGTSDKEILTSRIIDRSIRPLFPAGYFYDTQVLCNLLAVDGVNEPDVLAINGASVALSLSDIPWNGPVGAVRIGIIDGEYVVNPTRKEMSSSTLNLVVAGAPKSQIVMLEASAENILQQDFCHAIKVGVKYTQQIIQGIQQLVKETGVTKRTPQKLFTPSPEIVKYTHKLAMERLYAVFTDYEHDKVSRDEAVNKIRLDTEEQLKEKFPEADPYEIIESFNVVAKEVFRSIVLNEYKRCDGRDLTSLRNVSCEVDMFKTLHGSALFQRGQTQVLCTVTFDSLESGIKSDQVITAINGIKDKNFMLHYEFPPYATNEIGKVTGLNRRELGHGALAEKALYPVIPRDFPFTIRVTSEVLESNGSSSMASACGGSLALMDSGVPISSAVAGVAIGLVTKTDPEKGEIEDYRLLTDILGIEDYNGDMDFKIAGTNKGITALQADIKLPGIPIKIVMEAIQQASVAKKEILQIMNKTISKPRASRKENGPVVETVQVPLSKRAKFVGPGGYNLKKLQAETGVTISQVDEETFSVFAPTPSAMHEARDFITEICKDDQEQQLEFGAVYTATITEIRDTGVMVKLYPNMTAVLLHNTQLDQRKIKHPTALGLEVGQEIQVKYFGRDPADGRMRLSRKVLQSPATTVVRTLNDRSSIVMGEPISQSSSNSQ [PNPT1] | -0.154 | 0.177 | 1.84 | 0.0945 | 49.8 | 50 |
| MAAEQDPEARAAARPLLTDLYQATMALGYWRAGRARDAAEFELFFRRCPFGGAFALAAGLRDCVRFLRAFRLRDADVQFLASVLPPDTDPAFFEHLRALDCSEVTVRALPEGSLAFPGVPLLQVSGPLLVVQLLETPLLCLVSYASLVATNAARLRLIAGPEKRLLEMGLRRAQGPDGGLTASTYSYLGGFDSSSNVLAGQLRGVPVAGTLAHSFVTSFSGSEVPPDPMLAPAAGEGPGVDLAAKAQVWLEQVCAHLGLGVQEPHPGERAAFVAYALAFPRAFQGLLDTYSVWRSGLPNFLAVALALGELGYRAVGVRLDSGDLLQQAQEIRKVFRAAAAQFQVPWLESVLIVVSNNIDEEALARLAQEGSEVNVIGIGTSVVTCPQQPSLGGVYKLVAVGGQPRMKLTEDPEKQTLPGSKAAFRLLGSDGSPLMDMLQLAEEPVPQAGQELRVWPPGAQEPCTVRPAQVEPLLRLCLQQGQLCEPLPSLAESRALAQLSLSRLSPEHRRLRSPAQYQVVLSERLQALVNSLCAGQSP [NAPRT] | -0.0823 | 0.14 | -1.8 | 0.352 | 56.9 | 56.7 |
| MAAFSEMGVMPEIAQAVEEMDWLLPTDIQAESIPLILGGGDVLMAAETGSGKTGAFSIPVIQIVYETLKDQQEGKKGKTTIKTGASVLNKWQMNPYDRGSAFAIGSDGLCCQSREVKEWHGCRATKGLMKGKHYYEVSCHDQGLCRVGWSTMQASLDLGTDKFGFGFGGTGKKSHNKQFDNYGEEFTMHDTIGCYLDIDKGHVKFSKNGKDLGLAFEIPPHMKNQALFPACVLKNAELKFNFGEEEFKFPPKDGFVALSKAPDGYIVKSQHSGNAQVTQTKFLPNAPKALIVEPSRELAEQTLNNIKQFKKYIDNPKLRELLIIGGVAARDQLSVLENGVDIVVGTPGRLDDLVSTGKLNLSQVRFLVLDEADGLLSQGYSDFINRMHNQIPQVTSDGKRLQVIVCSATLHSFDVKKLSEKIMHFPTWVDLKGEDSVPDTVHHVVVPVNPKTDRLWERLGKSHIRTDDVHAKDNTRPGANSPEMWSEAIKILKGEYAVRAIKEHKMDQAIIFCRTKIDCDNLEQYFIQQGGGPDKKGHQFSCVCLHGDRKPHERKQNLERFKKGDVRFLICTDVAARGIDIHGVPYVINVTLPDEKQNYVHRIGRVGRAERMGLAISLVATEKEKVWYHVCSSRGKGCYNTRLKEDGGCTIWYNEMQLLSEIEEHLNCTISQVEPDIKVPVDEFDGKVTYGQKRAAGGGSYKGHVDILAPTVQELAALEKEAQTSFLHLGYLPNQLFRTF [DDX1] | 0.00283 | 0.00991 | 0.413 | -0.286 | 50.7 | 50.9 |
| MAAGDGDVKLGTLGSGSESSNDGGSESPGDAGAAAEGGGWAAAALALLTGGGEMLLNVALVALVLLGAYRLWVRWGRRGLGAGAGAGEESPATSLPRMKKRDFSLEQLRQYDGSRNPRILLAVNGKVFDVTKGSKFYGPAGPYGIFAGRDASRGLATFCLDKDALRDEYDDLSDLNAVQMESVREWEMQFKEKYDYVGRLLKPGEEPSEYTDEEDTKDHNKQD [PGRMC2] | -0.00423 | -0.577 | 0.992 | 0.236 | 52.3 | 53.9 |
| MAAGGDHGSPDSYRSPLASRYASPEMCFVFSDRYKFRTWRQLWLWLAEAEQTLGLPITDEQIQEMKSNLENIDFKMAAEEEKRLRHDVMAHVHTFGHCCPKAAGIIHLGATSCYVGDNTDLIILRNALDLLLPKLARVISRLADFAKERASLPTLGFTHFQPAQLTTVGKRCCLWIQDLCMDLQNLKRVRDDLRFRGVKGTTGTQASFLQLFEGDDHKVEQLDKMVTEKAGFKRAFIITGQTYTRKVDIEVLSVLASLGASVHKICTDIRLLANLKEMEEPFEKQQIGSSAMPYKRNPMRSERCCSLARHLMTLVMDPLQTASVQWFERTLDDSANRRICLAEAFLTADTILNTLQNISEGLVVYPKVIERRIRQELPFMATENIIMAMVKAGGSRQDCHEKIRVLSQQAASVVKQEGGDNDLIERIQVDAYFSPIHSQLDHLLDPSSFTGRASQQVQRFLEEEVYPLLKPYESVMKVKAELCL [ADSL] | -0.138 | -1.75 | -1.49 | 0.108 | 57.2 | 57.8 |
| MAAGPISERNQDATVYVGGLDEKVSEPLLWELFLQAGPVVNTHMPKDRVTGQHQGYGFVEFLSEEDADYAIKIMNMIKLYGKPIRVNKASAHNKNLDVGANIFIGNLDPEIDEKLLYDTFSAFGVILQTPKIMRDPDTGNSKGYAFINFASFDASDAAIEAMNGQYLCNRPITVSYAFKKDSKGERHGSAAERLLAAQNPLSQADRPHQLFADAPPPPSAPNPVVSSLGSGLPPPGMPPPGSFPPPVPPPGALPPGIPPAMPPPPMPPGAAGHGPPSAGTPGAGHPGHGHSHPHPFPPGGMPHPGMSQMQLAHHGPHGLGHPHAGPPGSGGQPPPRPPPGMPHPGPPPMGMPPRGPPFGSPMGHPGPMPPHGMRGPPPLMPPHGYTGPPRPPPYGYQRGPLPPPRPTPRPPVPPRGPLRGPLPQ [SF3B4] | 0.162 | -2.15 | -2.49 | 0.275 | 50.9 | 51.3 |
| MAAGVEAAAEVAATEIKMEEESGAPGVPSGNGAPGPKGEGERPAQNEKRKEKNIKRGGNRFEPYANPTKRYRAFITNIPFDVKWQSLKDLVKEKVGEVTYVELLMDAEGKSRGCAVVEFKMEESMKKAAEVLNKHSLSGRPLKVKEDPDGEHARRAMQKVMATTGGMGMGPGGPGMITIPPSILNNPNIPNEIIHALQAGRLGSTVFVANLDYKVGWKKLKEVFSMAGVVVRADILEDKDGKSRGIGTVTFEQSIEAVQAISMFNGQLLFDRPMHVKMDERALPKGDFFPPERPQQLPHGLGGIGMGLGPGGQPIDANHLNKGIGMGNIGPAGMGMEGIGFGINKMGGMEGPFGGGMENMGRFGSGMNMGRINEILSNALKRGEIIAKQGGGGGGGSVPGIERMGPGIDRLGGAGMERMGAGLGHGMDRVGSEIERMGLVMDRMGSVERMGSGIERMGPLGLDHMASSIERMGQTMERIGSGVERMGAGMGFGLERMAAPIDRVGQTIERMGSGVERMGPAIERMGLSMERMVPAGMGAGLERMGPVMDRMATGLERMGANNLERMGLERMGANSLERMGLERMGANSLERMGPAMGPALGAGIERMGLAMGGGGGASFDRAIEMERGNFGGSFAGSFGGAGGHAPGVARKACQIFVRNLPFDFTWKMLKDKFNECGHVLYADIKMENGKSKGCGVVKFESPEVAERACRMMNGMKLSGREIDVRIDRNA [HNRNPM] | 0.236 | 6.88 | 13.2 | -0.172 | 46.7 | 47.3 |
| MAAHLVKRCTCLLREAARQAPAMAPVGRLRLAWVAHKTLTSSATSPISHLPGSLMEPVEKERASTPYIEKQVDHLIKKATRPEELLELLGGSHDLDSNQAAMVLIRLSHLLSEKPEDKGLLIQDAHFHQLLCLLNSQIASVWHGTLSKLLGSLYALGIPKASKELQSVEQEVRWRMRKLKYKHLAFLAESCATLSQEQHSQELLAELLTHLERRWTEIEDSHTLVTVMMKVGHLSEPLMNRLEDKCLELVEHFGPNELRKVLVMLAAQSRRSVPLLRAISYHLVQKPFSLTKDVLLDVAYAYGKLSFHQTQVSQRLATDLLSLMPSLTSGEVAHCAKSFALLKWLSLPLFEAFAQHVLNRAQDITLPHLCSVLLAFARLNFHPDQEDQFFSLVHEKLGSELPGLEPALQVDLVWALCVLQQAREAELQAVLHPEFHIQFLGGKSQKDQNTFQKLLHINATALLEYPEYSGPLLPASAVAPGPSALDRKVTPLQKELQETLKGLLGSADKGSLEVATQYGWVLDAEVLLDSDGEFLPVRDFVAPHLAQPTGSQSPPPGSKRLAFLRWEFPNFNSRSKDLLGRFVLARRHIVAAGFLIVDVPFYEWLELKSEWQKGAYLKDKMRKAVAEELAK [TBRG4] | -0.127 | 0.141 | 3.9 | 0.123 | 48.4 | 48.2 |
| MAAIGVHLGCTSACVAVYKDGRAGVVANDAGDRVTPAVVAYSENEEIVGLAAKQSRIRNISNTVMKVKQILGRSSSDPQAQKYIAESKCLVIEKNGKLRYEIDTGEETKFVNPEDVARLIFSKMKETAHSVLGSDANDVVITVPFDFGEKQKNALGEAARAAGFNVLRLIHEPSAALLAYGIGQDSPTGKSNILVFKLGGTSLSLSVMEVNSGIYRVLSTNTDDNIGGAHFTETLAQYLASEFQRSFKHDVRGNARAMMKLTNSAEVAKHSLSTLGSANCFLDSLYEGQDFDCNVSRARFELLCSPLFNKCIEAIRGLLDQNGFTADDINKVVLCGGSSRIPKLQQLIKDLFPAVELLNSIPPDEVIPIGAAIEAGILIGKENLLVEDSLMIECSARDILVKGVDESGASRFTVLFPSGTPLPARRQHTLQAPGSISSVCLELYESDGKNSAKEETKFAQVVLQDLDKKENGLRDILAVLTMKRDGSLHVTCTDQETGKCEAISIEIAS [HSPA14] | -0.0832 | 1.14 | 3.27 | 0.167 | 48.4 | 48.4 |
| MAALAPVGSPASRGPRLAAGLRLLPMLGLLQLLAEPGLGRVHHLALKDDVRHKVHLNTFGFFKDGYMVVNVSSLSLNEPEDKDVTIGFSLDRTKNDGFSSYLDEDVNYCILKKQSVSVTLLILDISRSEVRVKSPPEAGTQLPKIIFSRDEKVLGQSQEPNVNPASAGNQTQKTQDGGKSKRSTVDSKAMGEKSFSVHNNGGAVSFQFFFNISTDDQEGLYSLYFHKCLGKELPSDKFTFSLDIEITEKNPDSYLSAGEIPLPKLYISMAFFFFLSGTIWIHILRKRRNDVFKIHWLMAALPFTKSLSLVFHAIDYHYISSQGFPIEGWAVVYYITHLLKGALLFITIALIGTGWAFIKHILSDKDKKIFMIVIPLQVLANVAYIIIESTEEGTTEYGLWKDSLFLVDLLCCGAILFPVVWSIRHLQEASATDGKGDSMGPLQQRANLRAGSRIESHHFAQADLELLASSCPPASVSQRAGITAAINLAKLKLFRHYYVLIVCYIYFTRIIAFLLKLAVPFQWKWLYQLLDETATLVFFVLTGYKFRPASDNPYLQLSQEEEDLEMESVVTTSGVMESMKKVKKVTNGSVEPQGEWEGAV [GPR107] | -0.385 | 0.348 | -0.468 | -0.0201 | – | 53.4 |
| MAALKSWLSRSVTSFFRYRQCLCVPVVANFKKRCFSELIRPWHKTVTIGFGVTLCAVPIAQKSEPHSLSSEALMRRAVSLVTDSTSTFLSQTTYALIEAITEYTKAVYTLTSLYRQYTSLLGKMNSEEEDEVWQVIIGARAEMTSKHQEYLKLETTWMTAVGLSEMAAEAAYQTGADQASITARNHIQLVKLQVEEVHQLSRKAETKLAEAQIEELRQKTQEEGEERAESEQEAYLRED [DIABLO] | 0.345 | -0.685 | -1.02 | -0.173 | 54.9 | 53.3 |
